Test [1] addresses measles virus (MeV) fusion protein F, wild type, expressed on cells (measles virus) (UniProt Q786F3). Kind of test: cell-based or functional assay.
Test [2] shares this target. As to the kind of experiment: cell-based or functional assay. The source holds these as a separate data set.
Test [3] has as its system vesicular stomatitis virus (VSV). The note with it: 16 h.
The test system of test [4] is viral glycoproteins (H and F); CD150. As to the kind of experiment: beta-galactosidase complementation-based fusion assay, CD150 target cells. As to conditions: for IC90: read-out: CD150 IC90.
The target in test [5] is viral glycoproteins (H and F); Nectin-4 (Measles virus, UniProt Q786F3). Kind of test: beta-galactosidase complementation-based fusion assay, Nectin-4 target cells. The note with it: for IC90: read-out: Nectin4 IC90.

Like-named read-outs stand apart in the source and are kept apart here. Numbered stars: 1 amine (or outer) side, 2 acyl side, 3 side chain; on linkers, the order of the positions; unused ones are H or OH. Bridge positions count the residues as written; N and C are the ends. Square brackets hold non-standard residues; d marks the D form. Ends that are not written are not given here. Peptide text beside a SMILES is read from it. I, II: the chains in the order shown. * marks the point of attachment. X1 = CC(C)CCC[C@@H](C)[C@H]1CC[C@H]2[C@@H]3CC=C4C[C@@H](OCCN(CCNC(=O)CCOCCOCCOCCOCCNC(=O)CCCN5C(=O)CC([*:1])C5=O)CCNC(=O)CCOCCOCCOCCOCCNC(=O)CCCN5C(=O)CC([*:2])C5=O)CC[C@]4(C)[C@H]3CC[C@]12C; X2 = O=C(CCN1C(=O)CC([*:1])C1=O)NCCOCCOCCOCCOCCOCCOCCOCCOCCOCCOCCOCCNC(=O)CCN1C(=O)CC([*:2])C1=O; Succinimide(1-Et,3-yl) = CCN1C(=O)CC(*)C1=O; Cbz = O=C(OCc1ccccc1)*

In the case of FIP-chol (peptide), in test [1], the IC50, beta-galactosidase complementation-based fusion assay, Nectin-4 target cells is more than 10000 nM and the IC90, beta-galactosidase complementation-based fusion assay, Nectin-4 target cells was more than 10000 nM. In test [2], this compound registered an IC50, beta-galactosidase complementation-based fusion assay, Nectin-4 target cells of 4000 nM and an IC90, beta-galactosidase complementation-based fusion assay, Nectin-4 target cells of 7620 nM.
In test [1], HRC450-485-chol (peptide) displayed an IC50, beta-galactosidase complementation-based fusion assay, Nectin-4 target cells of 103 nM and an IC90, beta-galactosidase complementation-based fusion assay, Nectin-4 target cells of more than 1000 nM. In test [2], this compound gave an IC90, beta-galactosidase complementation-based fusion assay, Nectin-4 target cells of more than 7000 nM.
In test [2], HRC450-485 (peptide) displayed an IC50, beta-galactosidase complementation-based fusion assay, Nectin-4 target cells of more than 10000 nM and an IC90, beta-galactosidase complementation-based fusion assay, Nectin-4 target cells of more than 10000 nM.
As for `CC[C@H](C)[C@H](NC(=O)[C@H](CC(C)C)NC(=O)[C@H](CO)NC(=O)[C@H](Cc1c[nH]cn1)NC(=O)[C@@H](NC(=O)[C@H](CC(C)C)NC(=O)[C@H](CO)NC(=O)[C@@H](NC(=O)[C@H](Cc1ccc(O)cc1)NC(=O)[C@H](CC(N)=O)NC(=O)[C@H](CC(N)=O)NC(=O)[C@@H](NC(=O)[C@H](CCC(=O)O)NC(=O)[C@H](CCCNC(=N)N)NC(=O)[C@H](CC(=O)O)NC(=O)[C@H](Cc1c[nH]c2ccccc12)NC(=O)[C@H](CCC(=O)O)NC(=O)[C@H](CCSC)NC(=O)[C@H](Cc1c[nH]c2ccccc12)NC(=O)CNC(=O)[C@H](CO)NC(=O)CNC(=O)[C@H](CO)NC(=O)CNC(=O)CNC(=O)[C@H](Cc1ccccc1)NC(=O)[C@@H](Cc1ccccc1)NC(=O)OCc1ccccc1)[C@@H](C)CC)[C@@H](C)O)[C@@H](C)CC)C(=O)N[C@@H](CCC(=O)O)C(=O)N[C@@H](CCC(=O)O)C(=O)N[C@@H](CO)C(=O)N[C@@H](CCC(N)=O)C(=O)N[C@@H](CC(N)=O)C(=O)N[C@@H](CCC(N)=O)C(=O)N[C@@H](CCC(N)=O)C(=O)N[C@@H](CCC(=O)O)C(=O)N[C@@H](CCCCN)C(=O)N[C@@H](CC(N)=O)C(=O)N[C@@H](CCC(=O)O)C(=O)N[C@@H](CCC(N)=O)C(=O)N[C@@H](CCC(=O)O)C(=O)N[C@@H](CC(C)C)C(=O)N[C@@H](CC(C)C)C(=O)NCC(=O)N[C@@H](CO)C(=O)NCC(=O)N[C@@H](CO)C(=O)NCC(=O)N[C@@H](CSC1CC(=O)N(CCCC(=O)NCCOCCOCCOCCOCCC(=O)NCCN(CCNC(=O)CCOCCOCCOCCOCCNC(=O)CCCN2C(=O)CC(SC[C@H](NC(=O)CNC(=O)[C@H](CO)NC(=O)CNC(=O)[C@H](CO)NC(=O)CNC(=O)[C@H](CC(C)C)NC(=O)[C@H](CC(C)C)NC(=O)[C@H](CCC(=O)O)NC(=O)[C@H](CCC(N)=O)NC(=O)[C@H](CCC(=O)O)NC(=O)[C@H](CC(N)=O)NC(=O)[C@H](CCCCN)NC(=O)[C@H](CCC(=O)O)NC(=O)[C@H](CCC(N)=O)NC(=O)[C@H](CCC(N)=O)NC(=O)[C@H](CC(N)=O)NC(=O)[C@H](CCC(N)=O)NC(=O)[C@H](CO)NC(=O)[C@H](CCC(=O)O)NC(=O)[C@H](CCC(=O)O)NC(=O)[C@@H](NC(=O)[C@H](CC(C)C)NC(=O)[C@H](CO)NC(=O)[C@H](Cc3c[nH]cn3)NC(=O)[C@@H](NC(=O)[C@H](CC(C)C)NC(=O)[C@H](CO)NC(=O)[C@@H](NC(=O)[C@H](Cc3ccc(O)cc3)NC(=O)[C@H](CC(N)=O)NC(=O)[C@H](CC(N)=O)NC(=O)[C@@H](NC(=O)[C@H](CCC(=O)O)NC(=O)[C@H](CCCNC(=N)N)NC(=O)[C@H](CC(=O)O)NC(=O)[C@H](Cc3c[nH]c4ccccc34)NC(=O)[C@H](CCC(=O)O)NC(=O)[C@H](CCSC)NC(=O)[C@H](Cc3c[nH]c4ccccc34)NC(=O)CNC(=O)[C@H](CO)NC(=O)CNC(=O)[C@H](CO)NC(=O)CNC(=O)CNC(=O)[C@H](Cc3ccccc3)NC(=O)[C@@H](Cc3ccccc3)NC(=O)OCc3ccccc3)[C@@H](C)CC)[C@@H](C)O)[C@@H](C)CC)[C@@H](C)CC)C(=O)O)C2=O)CCO[C@H]2CC[C@@]3(C)C(=CC[C@H]4[C@@H]5CC[C@H]([C@H](C)CCCC(C)C)[C@@]5(C)CC[C@@H]43)C2)C1=O)C(=O)O` (some centres unmarked) [FIP HIV], the IC50 (as a rule, the midpoint of a concentration-inhibition curve) in test [3] was more than 5000 nM.
Turning to FIP-HRC450-485-chol (peptide), in test [1], the IC50, beta-galactosidase complementation-based fusion assay, Nectin-4 target cells was 251 nM and the IC90, beta-galactosidase complementation-based fusion assay, Nectin-4 target cells amounted to 446 nM. Moreover, in test [2], the IC50, beta-galactosidase complementation-based fusion assay, Nectin-4 target cells came out at 214 nM and the IC90, beta-galactosidase complementation-based fusion assay, Nectin-4 target cells worked out at 614 nM.
In test [2], FIP-HRC450-485-peg4-chol (peptide) had an IC50, beta-galactosidase complementation-based fusion assay, Nectin-4 target cells of 214 nM and an IC90, beta-galactosidase complementation-based fusion assay, Nectin-4 target cells of 614 nM.
In test [3], “I: Cbz-[dF]FGGSGSGVALDPIDISIVLNKIKSDLEESKEWIRRSNKILDSIGSGSGC / II: Cbz-[dF]FGGSGSGVALDPIDISIVLNKIKSDLEESKEWIRRSNKILDSIGSGSGC (linker I:50-II:50 via X1; N-terminus assumed) [FIP VI KI]” yielded a 50% inhibitory concentration (IC50) of more than 5000 nM.
Turning to HRC450-485-peg4-chol (peptide), in test [2], the IC50, beta-galactosidase complementation-based fusion assay, Nectin-4 target cells turned out to be 123 nM and the IC90, beta-galactosidase complementation-based fusion assay, Nectin-4 target cells came out at 856 nM.
FIP-HRC450-485 (peptide) came in with an IC90, beta-galactosidase complementation-based fusion assay, Nectin-4 target cells in test [1] of more than 10000 nM. Also, the IC50, beta-galactosidase complementation-based fusion assay, Nectin-4 target cells in test [2] came to 4240 nM.
Regarding `CCN1C(=O)CC(SC[C@H](NC(=O)CNC(=O)[C@H](Cc2ccccc2)NC(=O)[C@@H](Cc2ccccc2)NC(=O)OCc2ccccc2)C(=O)O)C1=O` (some centres unmarked) [Monomer N-Maleimide FIP (no GSGSG)] (Cbz-[dF]FGC(Succinimide(1-Et,3-yl))-OH), the IC90 in test [4] and in test [5] was more than 1000 nM in each case.
Turning to FIP-peg4-chol (peptide), in test [2], the IC50, beta-galactosidase complementation-based fusion assay, Nectin-4 target cells is 4000 nM and the IC90, beta-galactosidase complementation-based fusion assay, Nectin-4 target cells was 7620 nM.
As for `O=C(CCN1C(=O)CC(SC[C@H](NC(=O)CNC(=O)[C@H](CO)NC(=O)CNC(=O)[C@H](CO)NC(=O)CNC(=O)CNC(=O)[C@H](Cc2ccccc2)NC(=O)[C@@H](Cc2ccccc2)NC(=O)OCc2ccccc2)C(=O)O)C1=O)NCCOCCOCCOCCOCCOCCOCCOCCOCCOCCOCCOCCNC(=O)CCN1C(=O)CC(SC[C@H](NC(=O)CNC(=O)[C@H](CO)NC(=O)CNC(=O)[C@H](CO)NC(=O)CNC(=O)CNC(=O)[C@H](Cc2ccccc2)NC(=O)[C@@H](Cc2ccccc2)NC(=O)OCc2ccccc2)C(=O)O)C1=O` (some centres unmarked) [[FIP]2-peg11] (I: Cbz-[dF]FGGSGSGC-OH / II: Cbz-[dF]FGGSGSGC-OH; linker I:9-II:9 via X2), the 50% inhibitory concentration (IC50) is more than 1000 nM in test [4] and more than 10000 nM in test [5] (Nectin4 IC50, Table 3 (extended version)). The IC90 (as a rule, the point of the concentration-response curve where the effect stands at 90%) in test [4] is more than 1000 nM; in test [5], more than 10000 nM.

For the origin of these results see patent US20230014151A1, “COMBINATION ANTIVIRAL THERAPY FOR MEASLES” (The Trustees of Columbia University in the City of New York, priority 2019, published 2023).
